Laboratory results taken from the RNAGym collection of RNA variant scans (doi:10.1073/pnas.2313332121).
Variants at the floor of the assay were thinned out.

B1: TPR 5TU (parent)
chain: GGAUCUUCUCGAUCUAACAAAAAAGACAAAUCUGCCACAAAGCUUGAGAGCAUCUUCGGAUGCAGAGGCGGCAGCCUUCGGUGGCGCGAUAGCGCCAACGUUCUCAACUAUGACACGCAAAACGCGUGCUCCGUUGAAUGGAGUUUAUCAUG

Variants of: B1
Assay: polymerase ribozyme fitness, log enrichment relative to wild type (log ratio); higher = more active; in vitro selection for triplet polymerase activity
In short: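 A heterodimeric triplet polymerase ribozyme had each of its subunits mutagenized by PCR into a library, which was transcribed. One round of in vitro selection, done in triplicate, annealed each library with a biotinylated primer, its partner subunit and triplets, then incubated it frozen at −7 °C before gel excision of extended constructs, streptavidin-bead capture and RT-PCR. Fitness is the logarithm of genotype enrichment relative to wild-type enrichment, based on Illumina sequencing of inputs and outputs and inverse-variance-weighted replicate averages. A base-2 logarithm is used, and genotypes were kept only with ≥10 input reads and ≥1 read per output.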

Variant | polymerase ribozyme fitness (log ratio)
GGAUCUUCUCGAUCUAACAAAAAAGACAAAUCUGGCACAAAGCUUGAGAGCAUCUUCGGAUGCAGAGGCGGCAGCCUUCGGUGGCGCGCUAGCGCGAACGUUCUCAACUAUGACACGCAAAACGCGUGCUCCGUUGAAUGGAGUUUAUCAUG | -4.02
GGAUCUUCUCGAUCUAACAAAAAAGACAAAUCUGGCACAAAGCUUGAUAGCAUCUUCGGAUGCAGAGGCAGCAGCCUUCGGUGGCGCGAUACCGCGAACGUUCUCAACUAUGACACGCAAAACGCGUGCUCCGUUGAAUGGAGUUAAUCAUG | ≤ -4.2
GGAUCUUCUCGAUCUAACAAAAAAGACAAAUCUGGCACAAAGCUUGAGAGCAUCUUCCGAUGCAGAGGCGGCAGCCUUCGGUGGCGCGAUAGCGCCAACGUUCUCAACUAUGACACGCAAAACGUGUGCUCCGUUGAAUGGAGUUUCUCAUG | ≤ -4.2
GGAUCUUCUCGAUCUAACAAAAAAGACAAAUCUGGCACAAAGCUUGAGAGCAUCUUCGGAUGCAGAGGCGGCAGCCUUCGGUGGAGCGAUAGCGCCAACGUUCUGAACUAUGUCACGCAAAACGCGUGCUCCGUUGAAUGGAGUUUAUCAUG | ≤ -4.2
GGAUCUUCUCGAUCUAACAAAAAAGACAAAUCUGGCACAAAGCUUGAGAGCAUCUUCGGAUGCAGAGGAGGCAGCAUUCGGUGGCGCGAUAGCGCCAACGUUCUCAACUAUGACACGGAAAACGCGCGCUCCGUUGAAUGGAGUUUAUCAUG | ≤ -4.2
GGAUCUUCUCGAUCUAACAAAAAAGACAAAUCUGGCACAAAGCUUGAGAGCAUCUUUGGAUGCAGAGGCGGCAGCCUUCGGUGGGGCGAUAGCGCCAACGUUCUCAACUAUGACACGCAAAACGCGUGCUCCGUUGAAUGGAGUUUAUCAAG | ≤ -4.2
GGAUCUUCUCGAUCUAACAAAAAAGACAAAUCUGGCACAAAGCUUGAGAGCAUAUACGGAUGCAGAGGCGGCAGCCUUGGGUGGCGCGAUAGCGCCAAUGUUCUCAACUAUGACACGCAAAACGCUUGCUCCGUUGAAUGGAUUUUAUCAUG | ≤ -4.2
GGAUCUUCUCGAUCUAACAAAAAAGACAAAUCUGGCACAAAGCUUGAGAACAUCUUCAGAUGCAGCGGCGGCAGACUUCGGUGGCGUGAUAGCGCCAACGUUCUCAACUAUGACACGCAAAACGCGUGCUCCGUUGAAUGGAGUUUAUCAUG | ≤ -4.2
GGAUCUUCUCGAUCUAACAAAAAAGACAAAUCUGGCACAAAGCUUGAGAGCAUCUUCGGAUGCAGAGGCGGCAGCCUUCGGUGGGGCGAUAGCGCCAACGUUCUCAACUAUGACACGCAAAACGCGUGCUCCGAUAAAUGGAGUUUAUCAUG | ≤ -4.2
GGAUCUUCUCGAUCUAACAAAAAAGACAAAUCUGGCACAAAGCUUGAGAGCAUUUUCGGUUGCAGAGGCGGCAGCCUUCGGUGGAGCGAUAGCGCCAACGUUCUCAACUAUGACACGCAAAACGCGUGCUCCGUUGAAUGGAGUUUAUCAUG | ≤ -4.2
GGAUCUUCUCGAUCUAACAAAAAAGACAAAUCUGGCACAAAACUUGAGAGCAUCUUCGGAUGCAGAGGCGGCAGCCUUCGGUGGCGCGAUAGCGCCAACGUUCUCAACUAUGACACGCAAAACGCGUGCGACGUUGAAUGGAGUUUAUCAUG | -4.12
GGAUCUUCUCGAUCUAACAAAAAAGACAAAUCUGGCACAAAGCUUGAGAGGAUCUGCGGAUGCAGAGGCAGCAGCGUUCGGUGGGGCGAUAGCGCCAACGUUCUCAACUAUGACACGCAAAACGCGUGCUCCUUUGAAUGGAGUUUAUCAUG | ≤ -4.2
GGAUCUUCUCGAUCUAACAAAAAAGACAAAUCUGGCACAAAGCUUGAGAGCAUCUUCGGAUGCAGAGGCGGCAGCCUUCGGUGGCGCGAUAGCGCCAACGUUCUUAACUAUGACACGCAAAACGCGUGAUCCGUUGAAUGGAGUUUAUCCUG | -4.14
GGAUCUUCUCGAUCUAACAAAAAAGACAAAUCUGGCACAAAGCUUGAGAGCAUCUUCGGAUGCAGAGGCGGCAGCAUUCGGUGGCGCGAUAGCGCCAACGUUCUCAACUAUGACACGCAAAACGCGUGCUCCGUUGAAUGGAGUUUAUCAUG | -4.13
GGAUCUUCUCGAUCUAACAAAAAAGACAAAUCUGGCACAAAGCUUGAGAGCAUCUUCGGAUGCAGAGGCGGCAGCUUUCGGUGGCGCGAUAGCGCCAACGUUCUCAACUAUGACACGCAAAACGCGUGCUCCGUUGAAUGGAGUUUAUCAUG | -3.99
GGAUCUUCUCGAUCUAACAAAAAAGACAAAUCUGGCACAAAGCUUGAGAGCAUCUUCGGAUGCAGAGGCGGCAGCCUUCGGUGGCGUGAUAGCGCCAACGUUCUCAACUAUGACACGUAAAACGCGUGCUCCGUUGAAUGGAGUUUAUCAUG | -4.18
GGAUCUUCUCGAUCUAACAAAAAAGACAAAUCUGGCACAAAGCUUGAGAGCAUCUUCGGAUGCAGAGGCGGCAGCCUUCGGUGGCGCGAUAGCGCCAACGUUCUCAACUAUGACGCGCAAAACGCGUGCUCCGUUGAAUGGAGUUUAUCAUG | -3.92
GGAUCUUCUCGAUCUAACAAAAAAGACAAAUCUGGCACAAAGCUUGAGAGCAUCUUCGGAUGCAGAGGCGGCAGCCUUCGGUGGCGCGAUCGCGCCAACGUUCUCAACUAUGACACGGAAAAAGCGUGCUCCGUUGAAUGGAGUUUAUCAUG | ≤ -4.2
GGAUCUUCUCGAUCUAACAAAAAAGACAAAUCUGGCACAAAGCUUGAGAGUAUCUUCGGAUGCAGAGGCGGCAGCCUUCGGUGGUGCGAUAGCGCCAACGUUCUCAACUAUGACACGCAAAACGCGUGCUCCGUUGAAGGGUGUUUAUCAUG | ≤ -4.2
